Assay results taken from the supplement of paper PMC11246515.
± gives the standard deviation of the averaged measurements.

Test: total protein half-life in vivo (active degradation + dilution); higher = more stable protein
[1] = E. coli NCM3722 delta-clpP delta-lon delta-hslV, growth: N-lim chemostat, doubling time 6 h
[2] = E. coli NCM3722 delta-clpP, growth: N-lim chemostat, doubling time 6 h
[3] = E. coli NCM3722 delta-hslV, growth: N-lim chemostat, doubling time 6 h
[4] = E. coli NCM3722 delta-lon, growth: N-lim chemostat, doubling time 6 h
[5] = E. coli NCM3722 delta-smpB, growth: N-lim chemostat, doubling time 6 h
[6] = wild type E. coli NCM3722, growth: C-lim chemostat, doubling time 3 h
[7] = wild type E. coli NCM3722, growth: C-lim chemostat, doubling time 6 h
[8] = wild type E. coli NCM3722, growth: C-lim chemostat, doubling time 12 h
[9] = wild type E. coli NCM3722, growth: N-lim chemostat, doubling time 6 h
[10] = wild type E. coli NCM3722, growth: N-lim chemostat, doubling time 12 h
[11] = wild type E. coli NCM3722, growth: P-lim chemostat, doubling time 6 h
[12] = wild type E. coli NCM3722, growth: P-lim chemostat, doubling time 12 h

In the case of “MFENITAAPADPILGLADLFRADERPGKINLGIGVYKDETGKTPVLTSVKKAEQYLLENETTKNYLGIDGIPEFGRCTQELLFGKGSALINDKRARTAQTPGGTGALRVAADFLAKNTSVKRVWVSNPSWPNHKSVFNSAGLEVREYAYYDAENHTLDFDALINSLNEAQAGDVVLFHGCCHNPTGIDPTLEQWQTLAQLSVEKGWLPLFDFAYQGFARGLEEDAEGLRAFAAMHKELIVASSYSKNFGLYNERVGACTLVAADSETVDRAFSQMKAAIRANYSNPPAHGASVVATILSNDALRAIWEQELTDMRQRIQRMRQLFVNTLQEKGANRDFSFIIKQNGMFSFSGLTKEQVLRLREEFGVYAVASGRVNVAGMTPDNMAPLCEAIVAVL”, the “total protein half-life in vivo” value [1] is reported as 4.59 ± 0.58 h, the “total protein half-life in vivo” value [2] is reported as 4.02 ± 0.34 h and the “total protein half-life in vivo” value [3] is reported as 3.88 ± 0.059 h. For the same sequence, the “total protein half-life in vivo” value [4] was 4.44 ± 0.22 h, the “total protein half-life in vivo” value [5] was 3.789 ± 0.034 h and the “total protein half-life in vivo” value [6] was 3.16 ± 0.23 h. For the same sequence, the “total protein half-life in vivo” value [7] was 5.555 ± 0.041 h, the “total protein half-life in vivo” value [8] was 10.29 ± 0.024 h and the “total protein half-life in vivo” value [9] was 3.86 ± 0.14 h. The “total protein half-life in vivo” value [10] was 5.97 ± 0.14 h, the “total protein half-life in vivo” value [11] was 5.69 ± 0.19 h and the “total protein half-life in vivo” value [12] was 11.84 ± 0.03 h.

In the case of “MFEPMELTNDAVIKVIGVGGGGGNAVEHMVRERIEGVEFFAVNTDAQALRKTAVGQTIQIGSGITKGLGAGANPEVGRNAADEDRDALRAALEGADMVFIAAGMGGGTGTGAAPVVAEVAKDLGILTVAVVTKPFNFEGKKRMAFAEQGITELSKHVDSLITIPNDKLLKVLGRGISLLDAFGAANDVLKGAVQGIAELITRPGLMNVDFADVRTVMSEMGYAMMGSGVASGEDRAEEAAEMAISSPLLEDIDLSGARGVLVNITAGFDLRLDEFETVGNTIRAFASDNATVVIGTSLDPDMNDELRVTVVATGIGMDKRPEITLVTNKQVQQPVMDRYQQHGMAPLTQEQKPVAKVVNDNAPQTAKEPDYLDIPAFLRKQAD [P0A9A6]”, the “total protein half-life in vivo” value [1] is reported as 5.406 ± 0.043 h, the “total protein half-life in vivo” value [2] is reported as 5.13 ± 0.67 h and the “total protein half-life in vivo” value [3] is reported as 1.86 ± 0.3 h. The “total protein half-life in vivo” value [4] was 1.95 ± 0.19 h, the “total protein half-life in vivo” value [5] was 1.95 ± 0.0047 h and the “total protein half-life in vivo” value [6] was 1.25 ± 0.079 h. For the same sequence, the “total protein half-life in vivo” value [7] was 1.97 ± 0.13 h, the “total protein half-life in vivo” value [8] was 2.7 ± 0.23 h and the “total protein half-life in vivo” value [9] was 1.79 ± 0.093 h. For the same sequence, the “total protein half-life in vivo” value [10] was 2.79 ± 0.26 h, the “total protein half-life in vivo” value [11] was 2.53 ± 0.23 h and the “total protein half-life in vivo” value [12] was 4.37 ± 0.54 h.

In the case of “MFGKGGLGNLMKQAQQMQEKMQKMQEEIAQLEVTGESGAGLVKVTINGAHNCRRVEIDPSLLEDDKEMLEDLVAAAFNDAARRIEETQKEKMASVSSGMQLPPGFKMPF [P0A8B5]”, the “total protein half-life in vivo” value [1] is reported as 6.29 ± 0.61 h, the “total protein half-life in vivo” value [2] is reported as 4.38 ± 0.044 h and the “total protein half-life in vivo” value [3] is reported as 3.59 ± 0.49 h. For the same sequence, the “total protein half-life in vivo” value [4] was 4.57 ± 0.16 h, the “total protein half-life in vivo” value [5] was 3.28 ± 0.64 h and the “total protein half-life in vivo” value [6] was 2.68 ± 0.07 h. For the same sequence, the “total protein half-life in vivo” value [7] was 4.44 ± 0.19 h, the “total protein half-life in vivo” value [8] was 7.56 ± 0.1 h and the “total protein half-life in vivo” value [9] was 3.02 ± 0.071 h. The “total protein half-life in vivo” value [10] was 5.05 ± 0.83 h, the “total protein half-life in vivo” value [11] was 4.24 ± 0.68 h and the “total protein half-life in vivo” value [12] was 9.46 ± 0.42 h.

For “MFGYRSNVPKVRLTTDRLVVRLVHDRDAWRLADYYAENRHFLKPWEPVRDESHCYPSGWQARLGMINEFHKQGSAFYFGLFDPDEKEIIGVANFSNVVRGSFHACYLGYSIGQKWQGKGLMFEALTAAIRYMQRTQHIHRIMANYMPHNKRSGDLLARLGFEKEGYAKDYLLIDGQWRDHVLTALTTPDWTPGR [P0A948]”, the “total protein half-life in vivo” value [1] was 4.56 ± 0.93 h, the “total protein half-life in vivo” value [2] was 3.52 ± 0.15 h and the “total protein half-life in vivo” value [3] was 3.89 ± 0.49 h. For the same sequence, the “total protein half-life in vivo” value [4] was 4.189 ± 0.017 h, the “total protein half-life in vivo” value [5] was 4.098 ± 0.021 h and the “total protein half-life in vivo” value [6] was 3.07 ± 0.059 h. The “total protein half-life in vivo” value [7] was 5.02 ± 0.078 h, the “total protein half-life in vivo” value [8] was 8.98 ± 0.43 h and the “total protein half-life in vivo” value [9] was 3.57 ± 0.065 h. The “total protein half-life in vivo” value [10] was 5.92 ± 0.15 h and the “total protein half-life in vivo” value [11] was 5.38 ± 0.41 h.

With “MFIPSIYLHQQLHYCKTAILNWSRKMALSRQKFTFERLRRFTLPEGKKQTFLWDADVTTLACRATSGAKAFVFQSVYAGKTLRMTIGNINDWKIDDARAEARRLQTLIDTGIDPRIAKAVKIAEAESLQAESRKTKVTFSVAWEDYLQELRTGISAKTKRPYSTRYIADHINLSSRGGESKKRGQGPTSAGPLASLLNLPLSELTPDYIAAWLSTERQNRPTVTAHAYRLLRAFIKWSNYQKKYQGIIPGDLAQDYNVRKMVPVSASKADDCLQKEQLKSWFSAVRSLNNPIASAYLQVLLLTGARREEIASLRWSDVDFKWSSMRIKDKIEGERIIPLTPYVSELLNVLAQSPNSDVNKEGWVFRSNSKSGKIIEPRSAHNRALVLAELPHISLHGLRRSFGTLAEWVEVPTGIVAQIMGHKPSALAEKHYRRRPLDLLRKWHEKIETWILNEAGITIKNNVDMR” the “total protein half-life in vivo” value [1] was 4.69 ± 0.43 h, the “total protein half-life in vivo” value [2] was 1.01 ± 0.058 h and the “total protein half-life in vivo” value [3] was 1.22 ± 0.19 h. The “total protein half-life in vivo” value [4] was 3.07 ± 0.74 h, the “total protein half-life in vivo” value [5] was 0.692 ± 0.011 h and the “total protein half-life in vivo” value [6] was 0.877 ± 0.072 h. The “total protein half-life in vivo” value [7] was 1.51 ± 0.091 h, the “total protein half-life in vivo” value [8] was 3.01 ± 0.11 h and the “total protein half-life in vivo” value [9] was 1.19 ± 0.41 h. The “total protein half-life in vivo” value [10] was 1.97 ± 0.42 h, the “total protein half-life in vivo” value [11] was 0.516 h and the “total protein half-life in vivo” value [12] was 2.03 ± 0.4 h.

With “MFKKILFPLVALFMLAGCAKPPTTIEVSPTITLPQQDPSLMGVTVSINGADQRTDQALAKVTRDNQIVTLTASRDLRFLLQEVLEKQMTARGYMVGPNGPVNLQIIVSQLYADVSQGNVRYNIATKADIAIIATAQNGNKMTKNYRASYNVEGAFQASNKNIADAVNSVLTDTIADMSQDTSIHEFIKQNAR [P0ADA5]” the “total protein half-life in vivo” value [1] was 6.32 ± 1.6 h, the “total protein half-life in vivo” value [4] was 6.15 ± 0.68 h and the “total protein half-life in vivo” value [5] was 5.86 ± 0.59 h. The “total protein half-life in vivo” value [6] was > 4 h, the “total protein half-life in vivo” value [7] was 7.64 ± 0.29 h and the “total protein half-life in vivo” value [8] was 12.6 ± 0.17 h. The “total protein half-life in vivo” value [9] was 6.36 ± 0.12 h, the “total protein half-life in vivo” value [10] was 13 ± 0.98 h and the “total protein half-life in vivo” value [11] was 6.254 ± 0.035 h. The “total protein half-life in vivo” value [12] was 14.94 ± 0.13 h.

In the case of “MFKSFFPKPGTFFLSAFVWALIAVIFWQAGGGDWVARITGASGQIPISAARFWSLDFLIFYAYYIVCVGLFALFWFIYSPHRWQYWSILGTALIIFVTWFLVEVGVAVNAWYAPFYDLIQTALSSPHKVTIEQFYREVGVFLGIALIAVVISVLNNFFVSHYVFRWRTAMNEYYMANWQQLRHIEGAAQRVQEDTMRFASTLENMGVSFINAIMTLIAFLPVLVTLSAHVPELPIIGHIPYGLVIAAIVWSLMGTGLLAVVGIKLPGLEFKNQRVEAAYRKELVYGEDDATRATPPTVRELFSAVRKNYFRLYFHYMYFNIARILYLQVDNVFGLFLLFPSIVAGTITLGLMTQITNVFGQVRGAFQYLINSWTTLVELMSIYKRLRSFEHELDGDKIQEVTHTLS [P0AFY6]”, the “total protein half-life in vivo” value [1] is reported as 5.51 ± 0.24 h, the “total protein half-life in vivo” value [2] is reported as 5.35 ± 0.061 h and the “total protein half-life in vivo” value [3] is reported as 5.4 ± 0.62 h. The “total protein half-life in vivo” value [4] was 5.41 ± 0.43 h, the “total protein half-life in vivo” value [5] was 5.52 ± 0.15 h and the “total protein half-life in vivo” value [7] was 4.97 ± 1.2 h. The “total protein half-life in vivo” value [8] was 11.3 ± 1.3 h, the “total protein half-life in vivo” value [10] was 8.73 ± 0.38 h and the “total protein half-life in vivo” value [11] was 5.77 ± 0.34 h.
